pKd: −log10 of the molar value.

This experiment addresses CD3 (target of Table E-1) (UniProt P07766). Description: Biacore (SPR; format not stated).

For orientation: pKd means the negative decadic logarithm of the Kd, by convention in mol/L. High values mean a low Kd, low ones a high Kd. Substance Anti-CD3 Fab OKT3 gave a pKd of 8.02.

The values are drawn from patent US20240287186A1.
